# From article PMC11329700 (2024)
# B1: GST-Dyn1xA-PRR (dynamin 1xA proline-rich region, amino acids 746-864) [rat] / Amphiphysin 1 [rat (endogenous in rat brain synaptosomes)] (parent complex)
# chain 1: NTTTVSTPMPPPVDDSWLQVQSVPAGRRSPTSSPTPQRRAPAVPPARPGSRGPAPGPPPAGSALGGAPPVPSRPGASPDPFGPPPQVPSRPNRAPPGVPSRSGQASPSRPESPRPPFDL
# chain 2: MADIKTGIFAKNVQKRLNRAQEKVLQKLGKADETKDEQFEEYVQNFKRQEAEGTRLQRELRGYLAAIKGMQEASMKLTESLHEVYEPDWYGREDVKMVGEKCDVLWEDFHQKLVDGSLLTLDTYLGQFPDIKNRIAKRSRKLVDYDSARHHLEALQSSKRKDESRISKAEEEFQKAQKVFEEFNVDLQEELPSLWSRRVGFYVNTFKNVSSLEAKFHKEIAVLCHKLYEVMTKLGDQHADKAFSIQGAPSDSGPLRIAKTPSPPEEASPLPSPTASPNHTLAPASPAPVRPRSPSQTRKGPPVPPLPKVTPTKELQQENIINFFEDNFVPEINVTTPSQNEVLEVKKEETLLDLDFDPFKPDVTPAGSAAATHSPMSQTLPWDLWTTSTDLVQPASGGSFNDFTQPQDTSLFTMQTDQNMAETEQALPTEPQAEEPPTTAAAPTAGLDLGLEMEEPKEEAAIPPGTDAGETVGTEGSTGEEAEAEKAALPAGEGESPEGAKIDVESTELASSESPQAAELEAGAPQEKVIPSVVIEPASNHEGEEHQETTTGTETREATEDVAPQGPAGEKQELATEPTPLDSQAATPAPAGAVDASLSAGDAAQELPPGFLYKVETLHDFEAANSDELTLQRGDVVLVVPSDSEADQDAGWLVGVKESDWLQYRDLATYKGLFPENFTRHLE
# Variants of: B1
# Experiment: GST pull-down, quantified Western blot; parent: 60; read off a plot
row,Variant,response [normalized intensity]
1,chain 1 R101A,~51
